Laboratory results as given in publication PMC5709507.

Legend:
[1] = target: endogenous RORα of mouse cerebellar neurons and cerebellum (UniProt P51448); test: co-immunoprecipitation (IP: FLAG, IB: RORα), quantified output band corrected by input band; conditions: primary cerebellar neurons, transient expression; n = 3; parent: est. 3.2; read off a plot
[2] = target: endogenous RORα of mouse cerebellar neurons and cerebellum (UniProt P51448); test: co-immunoprecipitation (IP: RORα, IB: FLAG), quantified output band corrected by input band; conditions: primary cerebellar neurons, transient expression; n = 3; parent: est. 0.42; read off a plot

Chain of UniProt P51448 (P51448 whole entry): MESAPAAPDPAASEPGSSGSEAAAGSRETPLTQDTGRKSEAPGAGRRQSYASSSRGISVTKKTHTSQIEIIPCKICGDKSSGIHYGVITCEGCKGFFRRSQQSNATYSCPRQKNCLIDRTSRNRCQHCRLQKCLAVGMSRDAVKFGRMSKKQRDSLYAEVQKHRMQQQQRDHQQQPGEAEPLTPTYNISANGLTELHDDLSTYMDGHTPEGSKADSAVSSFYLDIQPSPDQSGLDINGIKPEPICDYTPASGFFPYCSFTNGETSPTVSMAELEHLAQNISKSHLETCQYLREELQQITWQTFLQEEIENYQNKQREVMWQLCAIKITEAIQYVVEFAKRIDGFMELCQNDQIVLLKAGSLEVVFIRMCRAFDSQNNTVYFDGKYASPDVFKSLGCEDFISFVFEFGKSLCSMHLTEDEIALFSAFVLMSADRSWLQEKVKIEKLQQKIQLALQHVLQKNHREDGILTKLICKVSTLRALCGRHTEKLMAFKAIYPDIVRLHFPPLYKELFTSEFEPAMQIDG

Human YAP2 WT (FLAG-YAP2 WT) WQDP>AQDA (first WW domain)
response [1]: 3.1
response [2]: 0.4
